Measurements reported in patent publication US20250333486A1, “Anti-HSP90 alpha antibody and uses thereof” (NATIONAL HEALTH RESEARCH INSTITUTES, priority 2021, published 2025).

System: PANC-1 cells
Experiment: Transwell invasion assay, rHSP90α-induced PANC-1 invasion
Assay type: cell-based, human
Settings: 15 μg/ml rHSP90α plus 10 μg/ml antibody
Experimental: In a 37° C. and 5% CO2 humidified incubator, cancer cells were subjected to serum starvation in 0.5% FBS-containing medium for 16 h, and then added […] After another 24 h, the treated cells were harvested as aliquots (1×10^5 cells per aliquot) in 0.5% FBS-containing culture medium, and then each aliquot was seeded into a top chamber of Transwell inserts pre-coated with 5-fold diluted Matrigel (BD Biosciences). Cells were allowed 16 h to invade through the Matrigel toward the bottom chambers containing culture medium plus 10% FBS. The filters of the Transwell inserts were then fixed and stained with Giemsa. Invasive cells on the lower side of filters were photographed using the Axiovert S100/AxioCam HR microscope system (Carl Zeiss, Oberkochen, Germany) and further quantified by the Image-Pro Plus software (Media Cybernetics, Inc., Silver Spring, MD, USA).

B1: HH01: humanized anti-HSP90α IgG1 antibody, mutant of Clone-2-chimera; VH SEQ ID NO: 12, VL SEQ ID NO: 17 (antibody, V domains shown)
VH: EVQLVESGGGLVQPGGSLRLSCAASGFTFKTYAMNWVRQAPGQGLEWVARIRSKSRNYATYYADSVKDRFTISRDDSKNQFYLQMNNLRTEDTAVYYCVVGGSGFDYWGQGTTLTVSS
VL: DVVMTQTPLSLPVSLGDQASISCRSSQSIVHSNGNTYLEWYLQKPGQSPQLLIYKVSNRFSGVPDRFSGSGSGTDFTLTISSVEAEDLGVYYCFQGSHVPWTFGGGTKLEIK
modifications: Heavy chain variable region; Light chain variable region
In the case of B1, the “suppression of rHSP90α-induced invasiveness of PANC-1 cells” value is reported as “superior to Clone-2-hB, Clone-2-hC, and their parental Clone-2”.
